± gives the uncertainty stated by the source.

B1: Cell division cycle and apoptosis regulator protein 1, residues 625 to 674; numbered along this chain, Q8IX12 (parent)
chain: ISTPTHWSKLDPKTMKVNDLRKELESRALSSKGLKSQLIARLTKQLKVEE

This data set covers variants of B1. The experiment in a line: abundance fitness (aPCA) (normalised: wild type 0, dead -1); higher = more abundant; growth selection in yeast, the domain comes from the species named. The following applies: Homo sapiens.
As for ISTPTHPSKLDPKTMKVNDLRKELESRALSSKGLKSQLIARLTKQLKVEE [W7P], the abundance fitness is -0.101 ± 0.06.

As to ISTPTHCSKLDPKTMKVNDLRKELESRALSSKGLKSQLIARLTKQLKVEE [W7C], the abundance fitness is -0.112 ± 0.046.

ISTPTHDSKLDPKTMKVNDLRKELESRALSSKGLKSQLIARLTKQLKVEE [W7D]: the abundance fitness is -0.197 ± 0.044.

Take ISTPTHYSKLDPKTMKVNDLRKELESRALSSKGLKSQLIARLTKQLKVEE [W7Y]: the abundance fitness is -0.051 ± 0.042.

On to ISTPTHESKLDPKTMKVNDLRKELESRALSSKGLKSQLIARLTKQLKVEE [W7E], for which the abundance fitness is -0.139 ± 0.056.

Consider ISTPTHSSKLDPKTMKVNDLRKELESRALSSKGLKSQLIARLTKQLKVEE [W7S], for which the abundance fitness is -0.104 ± 0.035.

On to ISTPTHVSKLDPKTMKVNDLRKELESRALSSKGLKSQLIARLTKQLKVEE [W7V], for which the abundance fitness was -0.157 ± 0.033.

Take ISTPTHGSKLDPKTMKVNDLRKELESRALSSKGLKSQLIARLTKQLKVEE [W7G]: the abundance fitness was -0.187 ± 0.046.

For the variant ISTPTHFSKLDPKTMKVNDLRKELESRALSSKGLKSQLIARLTKQLKVEE [W7F], the abundance fitness was -0.022 ± 0.063.

As to ISTPTHQSKLDPKTMKVNDLRKELESRALSSKGLKSQLIARLTKQLKVEE [W7Q], the abundance fitness was -0.279 ± 0.07.

Consider ISTPTHKSKLDPKTMKVNDLRKELESRALSSKGLKSQLIARLTKQLKVEE [W7K], for which the abundance fitness is -0.142 ± 0.047.

On to ISTPTHASKLDPKTMKVNDLRKELESRALSSKGLKSQLIARLTKQLKVEE [W7A], for which the abundance fitness is -0.088 ± 0.035.

ISTPTHLSKLDPKTMKVNDLRKELESRALSSKGLKSQLIARLTKQLKVEE [W7L]: the abundance fitness is -0.223 ± 0.039.

As to ISTPTHWSFLDPKTMKVNDLRKELESRALSSKGLKSQLIARLTKQLKVEE [K9F], the abundance fitness is -0.317 ± 0.06.

ISTPTHWSELDPKTMKVNDLRKELESRALSSKGLKSQLIARLTKQLKVEE [K9E]: the abundance fitness is -0.068 ± 0.07.

On to ISTPTHWSGLDPKTMKVNDLRKELESRALSSKGLKSQLIARLTKQLKVEE [K9G], for which the abundance fitness is -0.154 ± 0.038.

Consider ISTPTHWSALDPKTMKVNDLRKELESRALSSKGLKSQLIARLTKQLKVEE [K9A], for which the abundance fitness is -0.016 ± 0.036.

With ISTPTHWSDLDPKTMKVNDLRKELESRALSSKGLKSQLIARLTKQLKVEE [K9D], the abundance fitness was -0.084 ± 0.054.

With ISTPTHWSCLDPKTMKVNDLRKELESRALSSKGLKSQLIARLTKQLKVEE [K9C], the abundance fitness is -0.243 ± 0.064.

For ISTPEHWSKLDPKTMKVNDLRKELESRALSSKGLKSQLIARLTKQLKVEE [T5E], the abundance fitness was -0.082 ± 0.057.

In the case of ISTPIHWSKLDPKTMKVNDLRKELESRALSSKGLKSQLIARLTKQLKVEE [T5I], the abundance fitness is -0.332 ± 0.069.

On to ISTPSHWSKLDPKTMKVNDLRKELESRALSSKGLKSQLIARLTKQLKVEE [T5S], for which the abundance fitness stood at 0.042 ± 0.034.

As for ISTPYHWSKLDPKTMKVNDLRKELESRALSSKGLKSQLIARLTKQLKVEE [T5Y], the abundance fitness is -0.423 ± 0.068.

ISTPHHWSKLDPKTMKVNDLRKELESRALSSKGLKSQLIARLTKQLKVEE [T5H]: the abundance fitness was -0.234 ± 0.039.

Turning to ISTPGHWSKLDPKTMKVNDLRKELESRALSSKGLKSQLIARLTKQLKVEE [T5G], the abundance fitness was -0.225 ± 0.033.

For ISTPFHWSKLDPKTMKVNDLRKELESRALSSKGLKSQLIARLTKQLKVEE [T5F], the abundance fitness is -0.772 ± 0.15.

With ISTPQHWSKLDPKTMKVNDLRKELESRALSSKGLKSQLIARLTKQLKVEE [T5Q], the abundance fitness is -0.091 ± 0.063.

For ISTPCHWSKLDPKTMKVNDLRKELESRALSSKGLKSQLIARLTKQLKVEE [T5C], the abundance fitness was -0.483 ± 0.068.

On to ISTPDHWSKLDPKTMKVNDLRKELESRALSSKGLKSQLIARLTKQLKVEE [T5D], for which the abundance fitness was -0.689 ± 0.094.

For the variant ISTPNHWSKLDPKTMKVNDLRKELESRALSSKGLKSQLIARLTKQLKVEE [T5N], the abundance fitness is -0.42 ± 0.061.

ISTPRHWSKLDPKTMKVNDLRKELESRALSSKGLKSQLIARLTKQLKVEE [T5R]: the abundance fitness was -0.103 ± 0.039.

Consider ISTPKHWSKLDPKTMKVNDLRKELESRALSSKGLKSQLIARLTKQLKVEE [T5K], for which the abundance fitness is -0.111 ± 0.033.

Regarding ISTPAHWSKLDPKTMKVNDLRKELESRALSSKGLKSQLIARLTKQLKVEE [T5A], the abundance fitness is 0.026 ± 0.05.

For the variant ISTPWHWSKLDPKTMKVNDLRKELESRALSSKGLKSQLIARLTKQLKVEE [T5W], the abundance fitness is -0.616 ± 0.053.

As for ISTPMHWSKLDPKTMKVNDLRKELESRALSSKGLKSQLIARLTKQLKVEE [T5M], the abundance fitness was -0.067 ± 0.031.

In the case of ISTPPHWSKLDPKTMKVNDLRKELESRALSSKGLKSQLIARLTKQLKVEE [T5P], the abundance fitness was -0.384 ± 0.062.

Regarding ISTETHWSKLDPKTMKVNDLRKELESRALSSKGLKSQLIARLTKQLKVEE [P4E], the abundance fitness is -0.052 ± 0.04.

For ISTDTHWSKLDPKTMKVNDLRKELESRALSSKGLKSQLIARLTKQLKVEE [P4D], the abundance fitness is -0.074 ± 0.039.

For the variant ISTWTHWSKLDPKTMKVNDLRKELESRALSSKGLKSQLIARLTKQLKVEE [P4W], the abundance fitness was -0.142 ± 0.058.

With ISTFTHWSKLDPKTMKVNDLRKELESRALSSKGLKSQLIARLTKQLKVEE [P4F], the abundance fitness was -0.072 ± 0.065.

Take ISTNTHWSKLDPKTMKVNDLRKELESRALSSKGLKSQLIARLTKQLKVEE [P4N]: the abundance fitness was -0.133 ± 0.076.

With ISTKTHWSKLDPKTMKVNDLRKELESRALSSKGLKSQLIARLTKQLKVEE [P4K], the abundance fitness was found to be 0.112 ± 0.063.

For ISTTTHWSKLDPKTMKVNDLRKELESRALSSKGLKSQLIARLTKQLKVEE [P4T], the abundance fitness was -0.035 ± 0.049.

For ISTRTHWSKLDPKTMKVNDLRKELESRALSSKGLKSQLIARLTKQLKVEE [P4R], the abundance fitness came out at 0.075 ± 0.039.

For ISTHTHWSKLDPKTMKVNDLRKELESRALSSKGLKSQLIARLTKQLKVEE [P4H], the abundance fitness is -0.206 ± 0.079.

Regarding ISTSTHWSKLDPKTMKVNDLRKELESRALSSKGLKSQLIARLTKQLKVEE [P4S], the abundance fitness turned out to be 0.15 ± 0.046.

Take ISTCTHWSKLDPKTMKVNDLRKELESRALSSKGLKSQLIARLTKQLKVEE [P4C]: the abundance fitness is 0.139 ± 0.056.

On to ISTGTHWSKLDPKTMKVNDLRKELESRALSSKGLKSQLIARLTKQLKVEE [P4G], for which the abundance fitness is 0.1 ± 0.033.

In the case of ISTYTHWSKLDPKTMKVNDLRKELESRALSSKGLKSQLIARLTKQLKVEE [P4Y], the abundance fitness stood at 0.012 ± 0.066.

Turning to ISTITHWSKLDPKTMKVNDLRKELESRALSSKGLKSQLIARLTKQLKVEE [P4I], the abundance fitness amounted to 0.029 ± 0.075.

In the case of ISTVTHWSKLDPKTMKVNDLRKELESRALSSKGLKSQLIARLTKQLKVEE [P4V], the abundance fitness was -0.033 ± 0.033.

Regarding ISTQTHWSKLDPKTMKVNDLRKELESRALSSKGLKSQLIARLTKQLKVEE [P4Q], the abundance fitness was -0.108 ± 0.059.

The values are drawn from the Human Domainome abundance scans (Beltran et al. 2025).
